# How the values were obtained:
# [1] = molecular target: LT5.J4b12C SOSIP.664 trimeric Env (HIV-1 B/C recombinant, soluble gp140) (HIV-1); test: negative-stain EM
# [2] = molecular target: His6-tagged sCD4 (D1-D2); test: BLI
substance,measurement,setting,value
"LT5.J4b12C SOSIP.664 trimeric Env (HIV-1 B/C recombinant, soluble gp140) (complex)",stoichiometry N,[1],3
same,fold lower affinity than BG505 SOSIP.664,[2],3 fold

# — paper PMC5612115
